# Measurements reported in publication PMC12695944, “Geminin inhibits DNA replication licensing by sterically blocking CDT1-MCM2 interactions” (Nature Communications, 2025).
# Numbering of substitutions follows the chain as printed.
# B1: full-length geminin (Gem^FL) (natural protein, human, UniProt O75496 1-209, looked up)
# chain: MNPSMKQKQEEIKENIKNSSVPRRTLKMIQPSASGSLVGRENELSAGLSKRKHRNDHLTSTTSSPGVIVPESSENKNLGGVTQESFDLMIKENPSSQYWKEVAEKRRKALYEALKENEKLHKEIEQKDNEIARLKKENKELAEVAEHVQYMAELIERLNGEPLDNFESLDNQEFDSEEETVEDSLVEDSEIGTCAEGTVSSSTDAKPCI
# notes: geminin, human, UniProt O75496, full length; Dimer in solution; In the co-purification of the CG complex the His tag is still on geminin at the HisTrap step and is cleaved afterwards; Plasmid is in Supplementary Data 1; also called WT geminin; source: E. coli BL21 (DE3), purified (HisTrap Excel, POROS HQ, Superdex 200); also co-expressed with untagged CDT1 in E. coli BL21 (DE3) and purified in …
# Key:
# [1] = target: T1, CDT1^ΔN (N-terminally truncated CDT1^158-546) (human, UniProt Q9H211 158-546); test: SPR
# T1 chain: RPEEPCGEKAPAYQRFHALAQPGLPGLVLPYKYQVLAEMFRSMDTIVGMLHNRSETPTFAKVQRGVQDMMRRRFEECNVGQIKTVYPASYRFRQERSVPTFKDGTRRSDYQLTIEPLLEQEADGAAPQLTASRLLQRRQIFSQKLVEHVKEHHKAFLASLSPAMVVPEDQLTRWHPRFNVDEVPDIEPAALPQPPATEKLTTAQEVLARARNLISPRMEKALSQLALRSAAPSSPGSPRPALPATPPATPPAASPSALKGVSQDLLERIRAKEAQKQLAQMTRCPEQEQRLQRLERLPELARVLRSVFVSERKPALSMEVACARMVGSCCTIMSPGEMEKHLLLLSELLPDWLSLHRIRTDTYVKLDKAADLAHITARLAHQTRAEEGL
# [2] = target: T2, CDT1^ΔN (N-terminally truncated CDT1^158-546) (human, UniProt Q9H211 158-546); test: SPR; single-cycle; CDT1^ΔN covalently immobilised on a CM5 chip (EDC/NHS); Gem^FL dimer injected, 7 injections, three-fold steps up to 750 nM; 25 °C; 10 mM HEPES, 500 mM NaCl, 50 µM EDTA, 1 mM TCEP-HCl, 0.05% Tween-20, pH 8.0; 1:1 kinetic model of analyte dimer:CDT1; conditions: both partners purified
# T2 construct: CDT1, human, UniProt Q9H211, residues 158-546 (lacks the unstructured N-terminus); Plasmid is in Supplementary Data 1; The His tag serves for capture on the NTA chip in the SPR with peptides; also called standard CDT1 construct; source: E. coli BL21 (DE3), purified (HisTrap Excel, POROS HS, Superdex 200); not shown: His6, N-terminal, kept
# T2 sequence (looked up): T1 chain
# [3] = target: T3, full-length CDT1 (CDT1^FL), untagged, co-expressed with geminin (CG complex) (human, UniProt Q9H211 1-546); test: SEC-MALS; co-expressed and co-purified CDT1^FL-geminin (CG) complex at >25× higher concentration than in the pre-RC assay; conditions: both partners purified
# T3 construct: CDT1, human, UniProt Q9H211, residues 1-546; A separate GST-cleaved CDT1^FL was used only in pre-RC assays; also called CDT1 of the CG complex; source: E. coli BL21 (DE3), co-expressed with His-geminin, co-purified as described for geminin
# T3 sequence (looked up): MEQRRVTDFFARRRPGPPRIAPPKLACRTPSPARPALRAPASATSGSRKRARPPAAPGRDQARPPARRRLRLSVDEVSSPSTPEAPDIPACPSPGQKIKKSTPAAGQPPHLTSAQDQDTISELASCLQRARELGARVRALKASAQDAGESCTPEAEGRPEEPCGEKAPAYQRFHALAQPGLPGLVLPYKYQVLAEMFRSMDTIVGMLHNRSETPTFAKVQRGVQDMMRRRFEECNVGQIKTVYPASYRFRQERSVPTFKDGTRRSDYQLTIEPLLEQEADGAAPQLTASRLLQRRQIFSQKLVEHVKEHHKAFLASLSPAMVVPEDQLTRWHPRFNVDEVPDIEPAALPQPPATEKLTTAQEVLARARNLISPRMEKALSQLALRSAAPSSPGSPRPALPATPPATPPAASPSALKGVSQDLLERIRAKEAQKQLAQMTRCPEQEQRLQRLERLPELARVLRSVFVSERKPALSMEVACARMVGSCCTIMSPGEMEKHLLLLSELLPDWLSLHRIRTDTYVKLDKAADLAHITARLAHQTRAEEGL
# [4] = target: T4, CDT1^R330A (on a CDT1^ΔN background) (human, UniProt Q9H211 158-546, R330A); test: mass photometry; room temperature; proteins incubated at CDT1:geminin monomer ratios 0:1, 1:0, 1:2, 1:3, 2:4, 1:4 (1 part = 150 nM) in pre-RC buffer minus Triton X-100, diluted 1:10 in PBS on the instrument; MHD, CHD at 1:2; conditions: both partners purified
# T4 construct: CDT1, human, UniProt Q9H211, residues 158-546 with R330A; source: E. coli, purified as for the MHD and CHD
# T4 sequence (looked up): T1 chain with R173A
# [5] = target: T5, CDT1^4A (CDT1^ΔN with residues 327–330 mutated to alanines) (human, UniProt Q9H211 158-546, residues 327–330 mutated to alanines (CDT1^4A)); test: as above; conditions: both partners purified
# T5 construct: CDT1, human, UniProt Q9H211, residues 158-546 with residues 327-330 all alanine; R330 is; source: E. coli, purified as for the MHD and CHD
# T5 sequence (looked up): T1 chain with Q170A, L171A, T172A, R173A
# [6] = target: the molecule itself; test: as above
# [7] = target: T2, CDT1^ΔN (N-terminally truncated …); test: as above; conditions: both partners purified
# [8] = target: T6, CDT1 middle helical domain (CDT1^MHD, residues 158–396) (human, UniProt Q9H211 158-396); test: as above; conditions: both partners purified
# T6 construct: CDT1, human, UniProt Q9H211, residues 158-396; also called CDT1^158-396; source: E. coli, purified as CDT1^ΔN with the POROS HS step omitted
# T6 sequence (looked up): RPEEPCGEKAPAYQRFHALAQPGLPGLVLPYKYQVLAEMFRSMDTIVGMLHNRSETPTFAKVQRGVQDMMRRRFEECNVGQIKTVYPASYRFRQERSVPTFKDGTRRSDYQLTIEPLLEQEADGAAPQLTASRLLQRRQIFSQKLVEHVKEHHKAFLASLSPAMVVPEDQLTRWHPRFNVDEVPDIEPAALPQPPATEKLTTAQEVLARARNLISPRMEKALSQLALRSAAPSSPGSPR
binder,measurement,setting,value
B1,koff,[1],0.0019 s⁻¹
same,Kd,[2],12 nM
same,stoichiometry N,[3],2 geminin monomers per CDT1
same,stoichiometry N,[4],2 geminin monomers per CDT1
same,stoichiometry N,[5],2 geminin monomers per CDT1
same,stoichiometry N,[6],1.91 ± 0.09
same,stoichiometry N,[7],2 geminin monomers per CDT1
same,stoichiometry N,[8],2 geminin monomers per CDT1^MHD
